Patent US20230025732A1 (INNATE PHARMA, published 2023)

Key:
[1] = biological target: T1, murine CD39 on CHO cells (murine, UniProt P55772 1-510); experiment: flow cytometry titration on CHO cells expressing murine CD39 (Mediane of Fluo), panel CHO-moCD39
T1 construct: whole, on cells; also called CHO-moCD39; moCD39
T1 sequence (looked up): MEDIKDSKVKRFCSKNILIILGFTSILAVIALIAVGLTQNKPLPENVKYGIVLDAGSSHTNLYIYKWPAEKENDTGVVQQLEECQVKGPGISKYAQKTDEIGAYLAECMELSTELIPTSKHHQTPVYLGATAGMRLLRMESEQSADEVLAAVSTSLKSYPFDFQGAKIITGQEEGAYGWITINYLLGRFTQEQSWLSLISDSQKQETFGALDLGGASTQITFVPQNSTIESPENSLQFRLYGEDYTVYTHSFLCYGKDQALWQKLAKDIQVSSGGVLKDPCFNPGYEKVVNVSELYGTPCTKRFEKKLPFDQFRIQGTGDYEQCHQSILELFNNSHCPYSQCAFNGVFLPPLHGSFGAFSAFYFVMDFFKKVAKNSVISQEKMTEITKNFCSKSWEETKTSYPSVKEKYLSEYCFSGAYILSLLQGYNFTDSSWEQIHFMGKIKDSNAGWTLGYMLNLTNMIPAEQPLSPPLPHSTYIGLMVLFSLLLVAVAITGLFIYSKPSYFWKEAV
Description: (§1) Cells were incubated with various concentration of unlabeled anti-CD39 antibody from 30 μg/ml to 5×10⁻⁴ μg/ml, for 30 minutes at 4° C. After washes, cells were incubated with Goat anti-mouse H+L labeled secondary antibody for 30 min at 4° C.

[2] = biological target: T2, Human CD39-L2, also known as NTPDase6 or ENTPD6 (human, UniProt O75354 61-484, limits assumed); experiment: ELISA on coated recombinant human CD39-L2, panel huCD39 L2; no legend on the sheet, curve is I-394 by paragraph 85
T2 construct: Recombinant protein coated in ELISA
T2 sequence: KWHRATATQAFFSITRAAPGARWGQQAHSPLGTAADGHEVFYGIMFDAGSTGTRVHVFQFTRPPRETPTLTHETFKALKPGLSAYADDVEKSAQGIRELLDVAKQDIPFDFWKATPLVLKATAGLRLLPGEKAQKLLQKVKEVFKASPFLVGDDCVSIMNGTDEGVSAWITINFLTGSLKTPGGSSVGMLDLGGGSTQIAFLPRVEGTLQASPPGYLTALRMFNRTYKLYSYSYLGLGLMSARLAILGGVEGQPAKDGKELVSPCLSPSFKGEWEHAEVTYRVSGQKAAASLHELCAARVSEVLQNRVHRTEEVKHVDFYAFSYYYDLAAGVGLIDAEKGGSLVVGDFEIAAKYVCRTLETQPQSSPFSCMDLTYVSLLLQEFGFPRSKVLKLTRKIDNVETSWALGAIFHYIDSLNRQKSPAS
Description: (§2) Wells were washed in TBS Tween 20, and further saturated 2H at RT in TBS Blocking buffer. Dose range concentration of primary antibody was incubated in TBS blocking buffer for 2 h at RT. Wells were washed in TBS Tween 20. […] Optical density was measured on Enspire™ at OD=450.

[3] = biological target: T3, cynomolgus (Macaca fascicularis) CD39 on CHO cells (cynomolgus (Macaca fascicularis), UniProt A0A7N9DGH8 1-510); experiment: flow cytometry titration on CHO cells expressing cynomolgus CD39 (Mediane of Fluo), panel CHO-cyCD39
T3 construct: whole, on cells; also called CHO-cyCD39; cyCD39
T3 sequence: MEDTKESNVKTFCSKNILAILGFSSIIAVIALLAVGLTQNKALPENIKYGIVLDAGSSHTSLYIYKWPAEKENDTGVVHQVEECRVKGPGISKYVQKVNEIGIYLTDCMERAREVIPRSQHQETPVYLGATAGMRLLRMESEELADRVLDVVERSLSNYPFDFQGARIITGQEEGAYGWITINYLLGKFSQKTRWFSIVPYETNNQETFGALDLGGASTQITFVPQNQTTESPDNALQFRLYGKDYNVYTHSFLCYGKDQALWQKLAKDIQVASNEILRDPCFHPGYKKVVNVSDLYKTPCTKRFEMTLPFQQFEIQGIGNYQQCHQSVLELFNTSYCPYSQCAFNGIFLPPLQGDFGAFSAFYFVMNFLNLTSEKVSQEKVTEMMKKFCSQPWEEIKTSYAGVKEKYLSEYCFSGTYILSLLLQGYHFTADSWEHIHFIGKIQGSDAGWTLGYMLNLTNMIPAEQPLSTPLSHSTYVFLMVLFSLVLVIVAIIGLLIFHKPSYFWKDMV
Description: as §1

[4] = biological target: T4, Human CD39-L3, also known as NTPDase3 or ENTPD3 (human, UniProt O75355 44-485, limits assumed); experiment: ELISA on coated recombinant human CD39-L3, panel huCD39 L3; no legend on the sheet, curve is I-394 by paragraph 85
T4 construct: Recombinant protein coated in ELISA
T4 sequence: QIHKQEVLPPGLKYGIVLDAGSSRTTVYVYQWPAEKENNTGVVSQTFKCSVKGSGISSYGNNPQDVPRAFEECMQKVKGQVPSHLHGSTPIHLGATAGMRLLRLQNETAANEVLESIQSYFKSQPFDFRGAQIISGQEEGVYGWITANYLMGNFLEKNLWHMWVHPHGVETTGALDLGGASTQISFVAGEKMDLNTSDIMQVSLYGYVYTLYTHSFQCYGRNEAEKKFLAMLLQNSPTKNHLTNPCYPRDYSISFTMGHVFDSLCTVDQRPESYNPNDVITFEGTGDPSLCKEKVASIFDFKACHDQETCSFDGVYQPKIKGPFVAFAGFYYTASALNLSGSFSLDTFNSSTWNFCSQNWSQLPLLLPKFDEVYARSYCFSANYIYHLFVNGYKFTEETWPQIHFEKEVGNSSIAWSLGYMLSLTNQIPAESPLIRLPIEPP
Description: as §2

B1: I-394 (antibody, human IgG1, V domains shown)
VH: EVQLQQSGPELVKPGASVKMSCKASGYTFTDYNMHWVKQSHGRTLEWIGYIVPLNGGSTFNQKFKGRATLTVNTSSRTAYMELRSLTSEDSAAYYCARGGTRFAYWGQGTLVTVSA
VL: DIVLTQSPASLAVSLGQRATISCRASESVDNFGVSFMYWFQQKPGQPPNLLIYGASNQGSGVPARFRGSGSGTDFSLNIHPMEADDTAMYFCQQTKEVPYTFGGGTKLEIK
binding result [1]: no binding (tested: about 30 µg/ml) | binding result [2]: no binding (tested: about 50 µg/ml) | EC50 (read off the curve) [3]: ~0.4 µg/mL | binding result [4]: no binding (tested: about 50 µg/ml)
